Key:
[1] = substrate: O=C(O)C[C@H](C(=O)O)[C@@H](O)C(=O)O; assay: NADH production, Hill fit; assay type: biochemical, Homo sapiens; details: no activators, 3.2 mM NAD, 2 mM MgCl2, 33 mM Tris-acetate pH 7.4
Description: NADH production, Hill fit on αβ heterodimer of HsIDH3 (mutant form αMβ)

[2] = substrate: O=C(O)C[C@H](C(=O)O)[C@@H](O)C(=O)O; assay: NADH production, Hill fit; assay type: biochemical, Homo sapiens; details: no activators, 3.2 mM NAD, 2 mM MgCl2, 33 mM Tris-acetate pH 7.4; remark: listed apart in the source
Description: NADH production, Hill fit on αγ heterodimer of HsIDH3 (mutant form αMγ)

B1: αβ heterodimer of HsIDH3 (mutant form αMβ) (Homo sapiens; P50213:Q166A) (protein)
chain 1: TGGVQTVTLIPGDGIGPEISAAVMKIFDAAKAPIQWEERNVTAIQGPGGKWMIPSEAKESMDKNKMGLKGPLKTPIAAGHPSMNLLLRKTFDLYANVRPCVSIEGYKTPYTDVNIVTIRENTEGEYSGIEHVIVDGVVASIKLITEGASKRIAEFAFEYARNNHRSNVTAVHKANIMRMSDGLFLQKCREVAESCKDIKFNEMYLDTVCLNMVQDPSQFDVLVMPNLYGDILSDLCAGLIGGLGVTPSGNIGANGVAIFESVHGTAPDIAGKDMANPTALLLSAVMMLRHMGLFDHAARIEAACFATIKDGKSLTKDLGGNAKCSDFTEEICRRVKDLD
chain 2: not shown
notes: coexpressed alpha and beta-TEV-His6 (pQlinkN), E. coli BL21(DE3) Codon-Plus, His6 tag cleaved with TEV; 1:1 heterodimer, mutant is heterotetramer (αMβ)2 of 131-149 kDa
[1]
  K0.5: 0.17 ± 0.02 mM
  Vmax: 18 µmol/min/mg

B2: αγ heterodimer of HsIDH3 (mutant form αMγ) (Homo sapiens; P50213:Q166A) (protein)
chain 1: B1 chain 1
chain 2: FSEQTIPPSAKYGGRHTVTMIPGDGIGPELMLHVKSVFRHACVPVDFEEVHVSSNADEEDIRNAIMAIRRNRVALKGNIETNHNLPPSHKSRNNILRTSLDLYANVIHCKSLPGVVTRHKDIDILIVRENTEGEYSSLEHESVAGVVESLKIITKAKSLRIAEYAFKLAQESGRKKVTAVHKANIMKLGDGLFLQCCREVAARYPQITFENMIVDNTTMQLVSRPQQFDVMVMPNLYGNIVNNVCAGLVGGPGLVAGANYGHVYAVFETATRNTGKSIANKNIANPTATLLASCMMLDHLKLHSYATSIRKAVLASMDNENMHTPDIGGQGTTSEAIQDVIRHIRVINGRAVEA
notes: coexpressed alpha and gamma-TEV-His6 (pQlinkN), E. coli BL21(DE3) Codon-Plus, His6 tag cleaved with TEV; 1:1 heterodimer, mutant is heterotetramer (αMγ)2 of 131-149 kDa
[2]
  K0.5: 0.26 ± 0.11 mM
  Vmax: 25.5 µmol/min/mg

Reference: article PMC9731866, “Structures of a constitutively active mutant of human IDH3 reveal new insights into the mechanisms of allosteric activation and the catalytic reaction” (The Journal of Biological Chemistry, 2022)
